Measurements published in patent US20020110800.

Target: wild-type TrkA, baculovirus-expressed, activated (autophosphorylated) (UniProt P04629)

B1: SHP-2 (enzyme, UniProt Q06124 2-593, looked up, species assumed)
Tyrosine-protein phosphatase non-receptor type 11: TSRRWFHPNITGVEAENLLLTRGVDGSFLARPSKSNPGDFTLSVRRNGAVTHIKIQNTGDYYDLYGGEKFATLAELVQYYMEHHGQLKEKNGDVIELKYPLNCADPTSERWFHGHLSGKEAEKLLTEKGKHGSFLVRESQSHPGDFVLSVRTGDDKGESNDGKSKVTHVMIRCQELKYDVGGGERFDSLTDLVEHYKKNPMVETLGTVLQLKQPLNTTRINAAEIESRVRELSKLAETTDKVKQGFWEEFETLQQQECKLLYSRKEGQRQENKNKNRYKNILPFDHTRVVLHDGDPNEPVSDYINANIIMPEFETKCNNSKPKKSYIATQGCLQNTVNDFWRMVFQENSRVIVMTTKEVERGKSKCVKYWPDEYALKEYGVMRVRNVKESAAHDYTLRELKLSKVGQGNTERTVWQYHFRTWPDHGVPSDPGGVLDFLEEVHHKQESIMDAGPVVVHCSAGIGRTGTFIVIDILIDIIREKGVDCDIDVPKTIQMVRSQRSGMVQTEAQYRFIYMAVQHYIETLQRRIEEEQKSKRKGHEYTNIKYSLADQTSGDQSPLPPCTPTPPCAEMREDSARVYENVGLMQQQKSFR
Question: B1 was tested. Which “dephosphorylation of 32P-autophosphorylated Trk in vitro” value did it give?
Answer: approximately 5-fold dephosphorylation
